Data on one substance can be found in US20220357345A1.

Experiment [1] addresses Aβ1-42 labelled with HiLyte Fluor 488 (UniProt P05067). Briefly: microscale thermophoresis (Monolith NT.115); labelled Aβ1-42 kept at 4 °C for one week (oligomers and fibres), PPP serially diluted. Background: Microscale thermophoresis detects binding through changes in fluorescence in a small temperature gradient.
Experiment [2] has the same target. Briefly: microscale thermophoresis (Monolith NT.115); HiLyte Fluor 488-labelled Aβ1-42 at 80 nM in PBS, PPP serially diluted; freshly dissolved Aβ1-42.

UniProt P05067, sequence (P05067 672-713 limits assumed): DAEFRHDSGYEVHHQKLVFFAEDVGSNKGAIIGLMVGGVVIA

As to “Aβ-binding polymer (phagocytosis-promoting peptide, PPP): small peptide chain randomly synthesized from glutamic acid, lysine, alanine and tyrosine, molecular weight 4 kD to 52 kD (average 6.5 kD)”, the figures for the Kd in experiment [1] and in experiment [2] were 25.4 nM and 6.6 nM, respectively.
